According to the supplement of paper PMC5998384:

How the values were obtained:
HeLa Kyoto [1] = assay: solubility in G1/S (NP-40 vs SDS abundance) (log2 ratio); higher = more soluble; details: cell cycle stage: G1/S
HeLa Kyoto [2] = assay: melting temperature (median over replicates), in situ; higher = more thermally stable
HeLa Kyoto [3] = assay: solubility change mitosis vs G1/S (difference of NP-40 vs SDS log2 ratios) (log2 ratio difference); higher = more soluble in mitosis
HeLa Kyoto [4] = assay: thermal stability score vs G1/S (z-score of summed log2 fold changes over temperatures); higher = more thermally stable than in G1/S
[5] = cell cycle stage: early G1 (4.5 h after nocodazole release)
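For melting temperature (median over replicates), in situ in this document: HeLa Kyoto cells synchronized by double thymidine or nocodazole block, proteins quantified by TMT10plex mass spectrometry, three independent biological replicates.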
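For solubility change mitosis vs G1/S (difference of NP-40 vs SDS log2 ratios) in this document: synchronized HeLa Kyoto cells (double thymidine block for G1/S, nocodazole release for mitosis), protein amounts in NP-40 versus SDS lysates quantified by mass spectrometry, three biological replicates.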
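For solubility in G1/S (NP-40 vs SDS abundance) in this document: HeLa Kyoto cells arrested at G1/S by double thymidine block, proteins quantified by TMT10plex mass spectrometry in mild NP-40 versus SDS extracts, three biological replicates.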
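For thermal stability score vs G1/S (z-score of summed log2 fold changes over temperatures) in this document: synchronized HeLa Kyoto cells, proteins quantified by TMT10plex mass spectrometry, three biological replicates, mitosis taken 0.5 h after nocodazole release, G1/S directly after double thymidine block.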

Sequence	solubility in G1/S (log2) (HeLa Kyoto [1])	melting temperature (HeLa Kyoto [2]; cell cycle stage: G1/S) [°C]	melting temperature (HeLa Kyoto [2]; cell cycle stage: mitosis) [°C]	solubility change mitosis (log2) (HeLa Kyoto [3])	thermal stability score (HeLa Kyoto [4]; [5])	thermal stability score (HeLa Kyoto [4]; cell cycle stage: mitosis)
MSEKENNFPPLPKFIPVKPCFYQNFSDEIPVEHQVLVKRIYRLWMFYCATLGVNLIACLAWWIGGGSGTNFGLAFVWLLLFTPCGYVCWFRPVYKAFRADSSFNFMAFFFIFGAQFVLTVIQAIGFSGWGACGWLSAIGFFQYSPGAAVVMLLPAIMFSVSAAMMAIAIMKVHRIYRGAGGSFQKAQTEWNTGTWRNPPSREAQYNNFSGNSLPEYPTVPSYPGSGQWP [SCAMP4]	-0.117	57	60.3	0.144	-1.67	-2.1
MADGDSGSERGGGGGPCGFQPASRGGGEQETQELASKRLDIQNKRFYLDVKQNAKGRFLKIAEVGAGGSKSRLTLSMAVAAEFRDSLGDFIEHYAQLGPSSPEQLAAGAEEGGGPRRALKSEFLVRENRKYYLDLKENQRGRFLRIRQTVNRGGGGFGAGPGPGGLQSGQTIALPAQGLIEFRDALAKLIDDYGGEDDELAGGPGGGAGGPGGGLYGELPEGTSITVDSKRFFFDVGCNKYGVFLRVSEVKPSYRNAITVPFKAWGKFGGAFCRYADEMKEIQERQRDKLYERRGGGSGGGEESEGEEVDED [PURB]	0.381	54.2	54.1	0.0319	-1.12	-5.37
MPAHLLQDDISSSYTTTTTITAPPSRVLQNGGDKLETMPLYLEDDIRPDIKDDIYDPTYKDKEGPSPKVEYVWRNIILMSLLHLGALYGITLIPTCKFYTWLWGVFYYFVSALGITAGAHRLWSHRSYKARLPLRLFLIIANTMAFQNDVYEWARDHRAHHKFSETHADPHNSRRGFFFSHVGWLLVRKHPAVKEKGSTLDLSDLEAEKLVMFQRRYYKPGLLMMCFILPTLVPWYFWGETFQNSVFVATFLRYAVVLNATWLVNSAAHLFGYRPYDKNISPRENILVSLGAVGEGFHNYHHSFPYDYSASEYRWHINFTTFFIDCMAALGLAYDRKKVSKAAILARIKRTGDGNYKSG [SCD]	-0.126	50.5	51.2	-0.151	1.76	-0.899
MSPKRIAKRRSPPADAIPKSKKVKVSHRSHSTEPGLVLTLGQGDVGQLGLGENVMERKKPALVSIPEDVVQAEAGGMHTVCLSKSGQVYSFGCNDEGALGRDTSVEGSEMVPGKVELQEKVVQVSAGDSHTAALTDDGRVFLWGSFRDNNGVIGLLEPMKKSMVPVQVQLDVPVVKVASGNDHLVMLTADGDLYTLGCGEQGQLGRVPELFANRGGRQGLERLLVPKCVMLKSRGSRGHVRFQDAFCGAYFTFAISHEGHVYGFGLSNYHQLGTPGTESCFIPQNLTSFKNSTKSWVGFSGGQHHTVCMDSEGKAYSLGRAEYGRLGLGEGAEEKSIPTLISRLPAVSSVACGASVGYAVTKDGRVFAWGMGTNYQLGTGQDEDAWSPVEMMGKQLENRVVLSVSSGGQHTVLLVKDKEQS [RCC1]	-0.0854	48	49.1	0.0534	1.88	3.04
MSVGFIGAGQLAFALAKGFTAAGVLAAHKIMASSPDMDLATVSALRKMGVKLTPHNKETVQHSDVLFLAVKPHIIPFILDEIGADIEDRHIVVSCAAGVTISSIEKKLSAFRPAPRVIRCMTNTPVVVREGATVYATGTHAQVEDGRLMEQLLSSVGFCTEVEEDLIDAVTGLSGSGPAYAFTALDALADGGVKMGLPRRLAVRLGAQALLGAAKMLLHSEQHPGQLKDNVSSPGGATIHALHVLESGGFRSLLINAVEASCIRTRELQSMADQEQVSPAAIKKTILDKVKLDSPAGTALSPSGHTKLLPRSLAPAGKD [PYCR1]	0.208	54.9	53.7	-0.0764	0.0884	-3.11
MPSKKKKYNARFPPARIKKIMQTDEEIGKVAAAVPVIISRALELFLESLLKKACQVTQSRNAKTMTTSHLKQCIELEQQFDFLKDLVASVPDMQGDGEDNHMDGDKGARRGRKPGSGGRKNGGMGTKSKDKKLSGTDSEQEDESEDTDTDGEEETSQPPPQASHPSAHFQSPPTPFLPFASTLPLPPAPPGPSAPDEEDEEDYDS [DRAP1]	0.748	56.9	55.7	0.215	-2.19	-2.89
MSEASSEDLVPPLEAGAAPYREEEEAAKKKKEKKKKSKGLANVFCVFTKGKKKKGQPSSAEPEDAAGSRQGLDGPPPTVEELKAALERGQLEAARPLLALERELAAAAAAGGVSEEELVRRQSKVEALYELLRDQVLGVLRRPLEAPPERLRQALAVVAEQEREDRQAAAAGPGTSGLAATRPRRWLQLWRRGVAEAAEERMGQRPAAGAEVPESVFLHLGRTMKEDLEAVVERLKPLFPAEFGVVAAYAESYHQHFAAHLAAVAQFELCERDTYMLLLWVQNLYPNDIINSPKLVGELQGMGLGSLLPPRQIRLLEATFLSSEAANVRELMDRALELEARRWAEDVPPQRLDGHCHSELAIDIIQITSQAQAKAESITLDLGSQIKRVLLVELPAFLRSYQRAFNEFLERGKQLTNYRANVIANINNCLSFRMSMEQNWQVPQDTLSLLLGPLGELKSHGFDTLLQNLHEDLKPLFKRFTHTRWAAPVETLENIIATVDTRLPEFSELQGCFREELMEALHLHLVKEYIIQLSKGRLVLKTAEQQQQLAGYILANADTIQHFCTQHGSPATWLQPALPTLAEIIRLQDPSAIKIEVATYATCYPDFSKGHLSAILAIKGNLSNSEVKRIRSILDVSMGAQEPSRPLFSLIKVG [TNFAIP2]	0.296	50.4	48.2	-0.0517	0.545	1.06
